Data from article PMC10306299.

Biological target: T1, CytRN (CytR DNA-binding domain) (Escherichia coli, UniProt P0ACN7 1-66)
T1 sequence: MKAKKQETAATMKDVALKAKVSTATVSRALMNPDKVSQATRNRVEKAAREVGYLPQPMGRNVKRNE
Assay: NMR

B1: udp half-site DNA (dsDNA)
DNA 1: ATTTATGCAACGCA
DNA 2: TGCGTTGCATAAAT
B1: binds.
